PMC8863369, “Heparan sulfate-dependent RAGE oligomerization is indispensable for pathophysiological functions of RAGE” (eLife, 2022)

Legend:
[1] = biological target: mouse RAGE VC1 domain triple mutant R216A-R217H-R218A (mouse); experiment: ELISA; methods: 200 ng mRAGE-WT or mRAGE-AHA coated on the plate, 1% BSA block, biotinylated HMGB1 50-1000 ng/ml for 2 hr, streptavidin-HRP; the legend says HMGB1 was immobilised; apparent Kd
[2] = biological target: T1, mouse RAGE VC1 domain triple mutant R216A-R217H-R218A; experiment: gel filtration (Superdex 200); settings: chain shown with the change; incubated with HS dodecasaccharide (H12); Superdex 200 (10/300 mm) gel filtration column; parent: est. 13; read off a plot
T1 chain: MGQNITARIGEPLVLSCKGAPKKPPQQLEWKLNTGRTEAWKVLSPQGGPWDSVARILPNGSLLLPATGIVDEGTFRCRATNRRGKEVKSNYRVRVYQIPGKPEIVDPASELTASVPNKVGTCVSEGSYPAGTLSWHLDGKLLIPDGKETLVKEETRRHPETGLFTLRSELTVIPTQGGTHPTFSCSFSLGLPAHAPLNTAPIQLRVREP

[3] = biological target: T2, high mobility group Box 1 (HMGB1) (UniProt P63158 1-215, biotin (in the HMGB1 binding ELISA of p-0047; immobilised without a stated label in the ELISA of p-0044)); experiment: ELISA; methods: 200 ng mRAGE-WT or mRAGE-AHA coated on the plate, 1% BSA block, biotinylated HMGB1 50-1000 ng/ml for 2 hr, streptavidin-HRP; the legend says HMGB1 was immobilised; apparent Kd; settings: both partners purified
T2 construct: HMGB1; also called biotinylated HMGB1
T2 sequence (looked up): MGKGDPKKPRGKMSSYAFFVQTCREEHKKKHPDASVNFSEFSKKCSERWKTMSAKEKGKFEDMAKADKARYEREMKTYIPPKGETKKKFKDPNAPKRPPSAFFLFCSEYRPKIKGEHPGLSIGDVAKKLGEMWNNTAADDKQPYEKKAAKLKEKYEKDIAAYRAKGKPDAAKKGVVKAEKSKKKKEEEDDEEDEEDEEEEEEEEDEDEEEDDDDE

high mobility group Box 1 (HMGB1) (from UniProt P63158 1-215) (ligand)
Kd [1]: 9.9 nM

B1: wild-type mouse RAGE VC1 domain, Q62151 R216A; R217H; R218A (protein)
chain: T1 chain
other: gel filtration elution volume of main peak in presence of H12 [2]: 14 mL

B2: wild-type mouse RAGE VC1 domain (domain or fragment, UniProt Q62151 23-231, looked up)
chain: GQNITARIGEPLVLSCKGAPKKPPQQLEWKLNTGRTEAWKVLSPQGGPWDSVARILPNGSLLLPATGIVDEGTFRCRATNRRGKEVKSNYRVRVYQIPGKPEIVDPASELTASVPNKVGTCVSEGSYPAGTLSWHLDGKLLIPDGKETLVKEETRRHPETGLFTLRSELTVIPTQGGTHPTFSCSFSLGLPRRRPLNTAPIQLRVREPG
notes: RAGE (receptor for advanced glycation end-products, Ager), mouse, V and C1 immunoglobulin domains; also called WT-mVC1; mVC1-WT; source: E. coli, purified (HiTrap SP cation exchange, SEC on Superdex 200)
Kd [3]: 11.7 nM
